Reference: paper PMC3788760
pKd: −log10 of the molar value.

Tests used:
[1] = molecular target: a-domain of human PDI (human); experiment: ITC; 37.0°C; VP-ITC; 200 µM Tau244–372 in the syringe injected into 8.1 µM full-length PDI or domain a in the cell; 10 mM HEPES pH 7.4, 100 mM NaCl, no DTT; single set of identical sites model
[2] = molecular target: full-length human protein disulfide isomerase (PDI) (human) (UniProt P07237); experiment: as above
[3] = molecular target: human PDI fragment abb’xa’ (human)
[4] = molecular target: a-domain of human PDI (human)
[5] = molecular target: full-length human protein disulfide isomerase (PDI) (human) (UniProt P07237)
[6] = molecular target: human PDI fragment abb’xa’ (human); experiment: ITC; 25.0°C; VP-ITC; 200 µM Tau244–372 (or 40 µM full-length Tau) in the syringe injected into 8.1 µM PDI or fragment (or 3.24 µM PDI) in the cell; 10 mM HEPES pH 7.4, 100 mM NaCl, no DTT; single set of identical sites model
[7] = molecular target: a-domain of human PDI (human); experiment: as above
[8] = molecular target: full-length human protein disulfide isomerase (PDI) (human) (UniProt P07237); experiment: as above

Chain of human Tau fragment Tau244–372 (P10636 561-689): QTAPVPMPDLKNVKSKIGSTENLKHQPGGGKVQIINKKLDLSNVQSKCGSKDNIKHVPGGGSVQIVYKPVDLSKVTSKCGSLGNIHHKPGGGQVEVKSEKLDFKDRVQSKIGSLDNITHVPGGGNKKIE

human Tau fragment Tau244–372 (from UniProt P10636-8 244-372) (domain or fragment)
pKd [1]: 5.87 | dH [1]: -4.34 kcal/mol | stoichiometry N [1]: 0.56 | pKd [2]: 5.32 | dH [2]: -9.27 kcal/mol | stoichiometry N [2]: 1.02 | lag time of Tau244–372 fibrillization (ThT, 37°C), 0–20 µM abb’xa’ (184 min without PDI); value at 20 µM [3]: 247 min | rate constant k for the growth of Tau244–372 fibrils (ThT), 0–20 µM abb’xa’ (falls from 36.7 without PDI); value at 20 µM [3]: 0.0233 min⁻¹ | t m of Tau244–372 fibrillization (ThT), 0–20 µM abb’xa’ (238.3 min without PDI); value at 20 µM [3]: 333 min | lag time of Tau244–372 fibrillization (ThT, 37°C), 0–20 µM domain a (184 min without PDI); value at 20 µM [4]: 253 min | rate constant k for the growth of Tau244–372 fibrils (ThT), 0–20 µM domain a (falls from 36.7 without PDI); value at 20 µM [4]: 0.0176 min⁻¹ | t m of Tau244–372 fibrillization (ThT), 0–20 µM domain a (238.3 min without PDI); value at 20 µM [4]: 366 min | lag time of Tau244–372 fibrillization (ThT) with 100 g/l Ficoll 70, 20 µM full-length PDI (∼0 without PDI) [5]: 44.8 min | lag time of Tau244–372 fibrillization (ThT, 37°C, 10 µM Tau244–372, heparin, 1 mM DTT), 0–20 µM full-length PDI (184 min without PDI); value at 20 µM [5]: 242 min | rate constant k for the growth of Tau244–372 fibrils (ThT) with 100 g/l Ficoll 70, 20 µM full-length PDI (54.9 without PDI) [5]: 0.0314 min⁻¹ | rate constant k for the growth of Tau244–372 fibrils (ThT), 0–20 µM full-length PDI (falls from 36.7 without PDI); value at 20 µM [5]: 0.0224 min⁻¹ | t m (time to 50% of maximal ThT fluorescence) of Tau244–372 fibrillization, 0–20 µM full-length PDI (238.3 min without PDI); value at 20 µM [5]: 331 min | t m of Tau244–372 fibrillization (ThT) with 100 g/l Ficoll 70, 20 µM full-length PDI (11.6 min without PDI) [5]: 108 min | pKd [6]: 5.13 | dH [6]: -5.9 kcal/mol | stoichiometry N [6]: 0.97 | pKd [7]: 6.32 | dH [7]: -4 kcal/mol | stoichiometry N [7]: 0.489 | pKd [8]: 5.46 | dH [8]: -8.6 kcal/mol | stoichiometry N [8]: 0.8
